In article PMC8654305 one finds stoichiometry N data, which are given here for one molecule.

For this test, the target named is recombinant C-terminal StrepII-tagged ScSbtB (SbtB from Synechocystis sp. PCC 6803) (Synechocystis sp. PCC 6803), P73954. The test can be described thus: crystal structure. The conditions noted are these: remark: other sources report otherwise.

B1: recombinant C-terminal StrepII-tagged ScSbtB (SbtB from Synechocystis sp. PCC 6803), P73954 1-110 (natural protein)
chain: MAKPANKLVIVTEKILLKKIAKIIDESGAKGYTVMNTGGKGSRNVRSSGQPNTSDIEANIKFEILTETREMAEEIADRVAVKYFNDYAGIIYICSAEVLYGHTFCGPEGC
The stoichiometry N is a count of units in the complex or per binding partner. As to B1, the stoichiometry N stood at 3.
